Molecular target: GST-WC-1 mini, LXXLL motif mutant (LAQLL changed to LAQAA) (Neurospora crassa) (UniProt Q01371)
Assay: pull-down

Chain of UniProt Q01371 (Q01371 838-1000, change not shown): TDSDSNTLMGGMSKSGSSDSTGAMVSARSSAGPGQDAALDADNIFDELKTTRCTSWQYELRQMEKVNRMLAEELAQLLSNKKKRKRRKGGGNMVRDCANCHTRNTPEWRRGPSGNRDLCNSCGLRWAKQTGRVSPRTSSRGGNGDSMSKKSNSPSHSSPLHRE

percent decrease of retained Gcn5p against WC-1 mini: 45%
Substance: S. cerevisiae Gcn5p, 35S-radiolabeled (from UniProt Q03330 1-439) (enzyme)

Reference: article PMC3459862
